Assay results published in the nanobody polyreactivity screen of Harvey et al. (2022).

Assay: yeast display, Sf9 membrane polyspecificity reagent, FACS + sequencing; frameworks hold sequencing errors
In short: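 Sorting gates, low and high (top ~1%), were placed on anti-HA fluorescence to track expression and on streptavidin fluorescence to track reagent binding. A clone's polyreactivity label is taken from the gate it came out of. The reagent was 10% biotinylated, detergent-solubilized Sf9 membrane, applied for 1 hour at 4 °C to galactose-induced yeast display cells.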

Sequence	polyreactivity (PSR sort gate)
QVQLVESGGGIVQAGGSLRLICAASGSIFSSYVMGWYRQAPGKERELVAAITSRGGSTYYADSVKGRFTISRDNAKNTVYLQMNSLKPEDTAVYYCAKGGTTWYWSGYRSIYFRYDYWGQGTQVTVSS	high polyreactivity
QVQLVESGGGIVQAGGSLRLRCAASGSTFYVYHMGWDRPAPGKERELVAAISSGAGSTYYADSVKGRFTISRDNAKNTVYLQMNSLKRKIPRSITALLFTVNGGGSRSHDYWAQGTQVTVSS	low polyreactivity
QVQLVESGGGIVQAGGSLRLRWAASGLTSVRNAMGWYRQAPGKERELVAGISWSGGRTYYADSVKGRFTISRDNEKNTVYLQMNSLKPEDTGVYYCNKVRAYYTQEGSWGQGTQVTVSS	high polyreactivity
QVQLVESGGGIVQAGGSLRLSCAASGFICGHYTMGWYRQAPGKERELVAAITTGGRTYYADSVKGRFTISRDNGKNTVYLQMISLKPEDTAVYYCAARGYIWGQGTPVTVSS	high polyreactivity
QVQLVESGGGIVQAGGSLRLSCAASGFIFDSYAMGWYRQAPGKERELVAAITTSGGRTYYADSVKGRFTISRDNAKNTVYLQMNSLKPEDTAVYYCAAKYTARWGFDYWGQGTQVTVSS	high polyreactivity
QVQLVESGGGIVQAGGSLRLSCAASGFIFPDYGMGWYRQAPGKERELVAAISRNGVSTYYADSVKGRFTISRDNAKNTVYLQMNSLKPEDTAVYYCAARYYRIRRVSKSGYYWGQGTQVTVSS	low polyreactivity
QVQLVESGGGIVQAGGSLRLSCAASGFIFSYYVMGWYRQAPGKEREFVAAITYSGTYTYYADSVKGRFTISRDNAKNTVYLQMNSLKPEDTAVYYCAAYSPRYNAHDYWGQGTQVTVSS	high polyreactivity
QVQLVESGGGIVQAGGSLRLSCAASGFNFSLYAMGWYRQAPGKERELVAVIDRRGGNTYYADSVKGRFTISRDNAKNTVYLQMNSLKPEDTAVYSCAADRRFHYDYWGQGTQVTVSS	high polyreactivity
QVQLVESGGGIVQAGGSLRLSCAASGFTFAYYAMGWYRQAPGKERELVAAITRGGGRTFYADSVKGRFTISRDNAKNTVYLQMNSLKPEDTAVYYCAAVKDTTNSRGYGYWGQGTHVTVSS	high polyreactivity
QVQLVESGGGIVQAGGSLRLSCAASGFTFGYYARGWYRQAPGKERELVAAISSRVGRTYYADSVKGRFTISRDNAKNTDYLQMNSLKPEDTAVYYCNTVGKTQWYYYWGQGTQVTVAS	high polyreactivity
QVQLVESGGGIVQAGGSLRLSCAASGFTFSNNVMGGYRQAPGKERELVAAITWSGDGTYYADSVKGRFTISRDNAKNTVYLQMNSLKPEDTAVYYCNARYGKEYDYWGQGTQVTVSS	low polyreactivity
QVQLVESGGGIVQAGGSLRLSCAASGFTFSRYTMGWFRPAPGQERELVAAINRRGGSTYYADSVKGRFTISRDNAKHTVYLQLNSVKPADTAVYYCAATYTVRSGNGIANDYWGQGTQVTVSS	high polyreactivity
QVQLVESGGGIVQAGGSLRLSCAASGFTFTYNTKGWYRQEPGKERELVAAISRSGGSTYYADSVKGRFTISRDNAKNTVYLQLNSLKPEDSAVYYCAKQRRDDNGGYWGLGTQVTVSS	high polyreactivity
QVQLVESGGGIVQAGGSLRLSCAASGFTFWSYAMGWYRPAPGKERELVAAISRGGSTSYADSVKGRFTISRDNAKNTVYLQLNSLKPEDTAVYYCAVVRARAYVYHGFYWGQGTQVTVSS	high polyreactivity
QVQLVESGGGIVQAGGSLRLSCAASGFTLYYYAMGWYRQAPGKERELVAAITSSGTSTYYADSVKGRFTISRDNAKNTVYVQMNSLKPEDTAVYYCAAVSKIYHYRAVRLDDYWGQGTQVTVSS	low polyreactivity
QVQLVESGGGIVQAGGSLRLSCAASGFTYDENAMGWYRQAPGINYSGASTYYAESVKGRFTISRDNAKNTVYLQMNSLKPEDTAVYYCAAEVVAQMNYWGQGTQVTVSS	low polyreactivity
QVQLVESGGGIVQAGGSLRLSCAASGFTYWFYAMGWYRQAPGKERELVAAISRGGSTYYADSVKGRFTFSRDKAKNTVYLQMNSLKPEDTAVYYCAADFVHRGYYYWGQGTQVTVSS	high polyreactivity
QVQLVESGGGIVQAGGSLRLSCAASGGIFFIYTMGWYRQAPGKERELVAAITSTGDTNYADSVKGRFTISRDNAKNTVYLQMNSLKPEDTAVYYCNKDYGTRGKGYDYWGQGTQVTVSS	low polyreactivity
QVQLVESGGGIVQAGGSLRLSCAASGGTFNRYAMGWYRQAPGKERELVAAISNGGGRTYYADSVKGRFTISRDNAKNTVYLQMNSLKPEDNSVYYCAKDLTRTSYRSAFDYWGQGTQVTVSS	high polyreactivity
QVQLVESGGGIVQAGGSLRLSCAASGGTFSRNAMGWYRQAPGKERELVAAINSSGVSTSYADSVKGRFTISRDNEKNTVYLQMNSLKPEDTAVYYCAAETSSAEVDYWGQGTQVTVSS	low polyreactivity
QVQLVESGGGIVQAGGSLRLSCAASGIIFPVYAMGWYRQAPGKERELVAAISRSGGSTYYADSVKGRFTISRDNAKNNVYLQMNSLKPEDTAVYYCAARYVVGYSLSSYGYWGQGTQVTVSS	high polyreactivity

Sequence	polyreactivity (PSR sort gate)
QVQLVESGGGIVQAGGSLRLSCAASGIIFTGNAMGWYIQAPGKERELVAAITSGDTTNYADSVKGRFTISRDNAKNTVYLQMNSLKPEDTAVYYCAKELQVRQAGDYWGQGTQVTVSS	low polyreactivity
QVQLVESGGGIVQAGGSLRLSCAASGIIIDGNAMGWYRQAPGKERELVAAISSRGGSTYYADSVKGRFTISRDYAKNTVYLQMNSLKPEDTAVYYCAAKVRHYYSASNYYYWGQGTQVTVSS	high polyreactivity
QVQLVESGGGIVQAGGSLRLSCAASGIISRVYAMGWYRQAPGKERELVAAISGSGGTTYYADSVKGRFTISRDNAKNTVYLQMNRLKPEDTAVDYCAARYKALYDYWGQGTQVTVSS	high polyreactivity
QVQLVESGGGIVQAGGSLRLSCAASGLIFLDNAMGWYRQAPGKEREFVAAIDSGGSTNYADSVKGRFTISRDNAKNNVYLQMNSLKPEDTAVYYCAAVWIYAPWYYQESVEYYYWGQGTQVSVSS	low polyreactivity
QVQLVESGGGIVQAGGSLRLSCAASGLIFPWTYAMGWYRQAHGKEREFVAAITSSDGSTYYADSVKGRFTISRDNAKNTVYLQMNSLKPEDTAVYYCAAVGWDYDWDYYYWGQGTQVTVSS	high polyreactivity
QVQLVESGGGIVQAGGSLRLSCAASGLTFYGYTMGWYRQAPGKERELVAAISWSGGNTYYADSVKGRFTISRDNAKNTVYLQMNSLKPDDTAVYYCAAVYVYLGVYARYPIWGYYYWGQGTQVTVSS	low polyreactivity
QVQLVESGGGIVQAGGSLRLSCAASGLTIPPNAMGWYRQAPGKEREFVAAITWSGGSTYYADSVKGRFTISRDNAKNTVYLQMNRLKPEDSAVYYCNRVTAYYPTKFDYWGQGTQVTVSS	high polyreactivity
QVQLVESGGGIVQAGGSLRLSCAASGNIFDDNAMGWYRQAPGKDRELVAAITSRGTRTYYADSVKGRFTISRDNAKNTVYLQMNSLKPEDTAVYYCAAGSYYWGQGSQVTVSS	high polyreactivity
QVQLVESGGGIVQAGGSLRLSCAASGNIFHKNAMGWYRQAPGKERELVASISCSGGSTYYADSVKGRFTISRDNAKNTVYLQMNSLKPEDTAVYYCATDAFGYPVNRYALNDYWGQGTQVTVSS	low polyreactivity
QVQLVESGGGIVQAGGSLRLSCAASGNILFSYAMGWYRQAPGKERELVAAISRSGGSTYYADSVKGRFTISRDNAKNTVYLQMNSLKPEDTAVYYCNAGVYYSYSVTEDYWGQGTQVTVSS	high polyreactivity
QVQLVESGGGIVQAGGSLRLSCAASGNTFYAYTMGWYRPAPGKERELVAAISSDGSTNYAVSVKGSVTISRDHAKNTVYLQLNCLKPEDTAVYYCAKYTSSRFEYDYWGHGTQVTVSS	low polyreactivity
QVQLVESGGGIVQAGGSLRLSCAASGNTFYPYTMGWYRQAPGKERELVADITYIGGDTYYADSVKGRFTISRDNAKNTVYLQMHTLKPEDTAVYYCNAVEVDHDYFYYGQNEYWGQGTQVTVSS	low polyreactivity
QVQLVESGGGIVQAGGSLRLSCAASGPNFTDNAMGWYRQAPGKERELVAAITGPGGSTYYAHSVKGRFTISRDNAKTTVYLQMNSLKREDTAVFYCAADYYYPYYWGQGTQVTVSS	low polyreactivity
QVQLVESGGGIVQAGGSLRLSCAASGRIFPHNAMGWDRQAPGKERELVAAITKSGDDTYYADSVKGRFTISRDNAKNTVYLQMNSLKPEDTAVYYCAAYLSWYDYWGQGTQVTVSS	low polyreactivity
QVQLVESGGGIVQAGGSLRLSCAASGRIFVGYAMGWYRQAPGKEREFVAAITFRGGTTYYADSVKGSFTISRDNAKNTVYLQMNSLKPEDTAVYYCAVPHYLYSVEYGYWGQGTQVTVSS	low polyreactivity
QVQLVESGGGIVQAGGSLRLSCAASGRIFVYNTMGWYRQAPGKEREFVAALSWRGGRTYYADSVKGRFTISRDNAKNTVYLQKNSLKPEDTAVYYCGADLKYYGYDYWGQGTHVTVSS	high polyreactivity
QVQLVESGGGIVQAGGSLRLSCAASGRIFYFNAMGWYSQAPGKERELVAAISGSGGDTYYADSVKGRFTISRDNAKNTVYLQMNSLKPEDTAVYFCAKEYIFRLWGQGTQVTVSS	low polyreactivity
QVQLVESGGGIVQAGGSLRLSCAASGRIFYINAMGWYRQAPGKERELVAAISTSGGCTYYADSVKGRFTISRDNAKKTVYLQMNSLKPEVTAVYYCAAALRYGYYGREYYYWGQGTKVTVSS	high polyreactivity
QVQLVESGGGIVQAGGSLRLSCAASGRNFSRYAMGWYRQAPGKERELVAVISRSGADTYYADSVKGRFTISRDNAKNTVYLQMNSLKPEDTAVYYCNAYSARRPHPMGYDYWGEGTQVTVSS	high polyreactivity
QVQLVESGGGIVQAGGSLRLSCAASGRTFTYNAMGRYRQAPGKERELVAAITYRGGSTYYADSVKGRFTISRDNAKNTVYLQMNSLKPEDTAVYYCAARVSYYRYNTPHYYYWGQGTQVTVSS	high polyreactivity
